From patent US20160152733A1 come the findings set out here.

For assay [1], the target named is human CD45R0 antigen (splice variant/isoform CD45R0 of CD45 antigen, PTPRC), cell-bound (human) (UniProt P08575). Put plainly: flow cytometry on human PBMC, from max. MFI; relative to muCD45R0 = 100%. (In general: Flow cytometry measures light scatter and fluorescence of single cells or particles in a stream.)
Assay [2] shares this target. Put plainly: flow cytometry, indirect staining of human PBMC, Fab 1-10 µg/mL + anti-His-PE.
Assay [3] has the same target. The assay can be described thus: flow cytometry, human PBMC gated on living CD45RA-negative WBC, Fab 5 µg/mL + anti-His-PE.
The target is the same in assay [4]. Put plainly: flow cytometry on human PBMC, from median fluorescence at 5 µg/mL; relative to muCD45R0 = 100%.
For assay [5] the target is unchanged. Put plainly: flow cytometry on human PBMC, from max. MFI; muCD45R0 set to 100%.
For assay [6] the target is unchanged. The assay can be described thus: flow cytometry on human PBMC, from median fluorescence at 5 µg/mL; muCD45R0 set to 100%.
Assay [7] shares this target. The assay can be described thus: flow cytometry on human T cells, from median fluorescence at 5 µg/mL; muCD45R0 set to 100%.
For assay [8] the target is unchanged. Put plainly: flow cytometry, biotinylated Fab 5 µg/mL on human CD3+ CD45RA- T cells, donor 1 (text: anti-Biotin-PE; table head: anti-HIS-PE).
Assay [9] shares this target. The assay can be described thus: flow cytometry, biotinylated Fab 5 µg/mL on human CD3+ CD45RA- T cells, donor 2 (text: anti-Biotin-PE; table head: anti-HIS-PE).

B1: Fab variant "huCD45R0_v1" (humanized, 4D5 framework with backmutations) (Fab, V domains shown, not shown: small tags and cut ends)
VH: EVQLVESGGGLVQPGGSLRLSCAFSGFSLTTYGIGVGWIRQAPGKGLEWLTHIWWNDNKYYADSVKGRFTISKDSSKNTVYLQMNSLRAEDTAVYYCLYGYTYWGQGTLVTVSS
VL: DIQMTQSPSSLSASVGDRVTITCRSSQSLLYSNGNTYLHWYQQKPGKAPKLLIYKLSNRFSGVPSRFSGSRSGTDFTLTISSLQPEDFATYYCSQSTHVPWTFGQGTKVEIKR
B1 gave a relative affinity (%) in [1] of 8%. In addition, the max. mean fluorescence (anti-HIS-PE) in assay [2] was 3.

B2: Fab variant "huCD45R0_v2" (humanized, 4D5 framework with extended backmutations) (Fab, V domains shown, not shown: small tags and cut ends)
VH: QIQLVESGGGLVQPGGSLRLSCAFSGFSLTTYGIGVGWIRQAPGKGLEWLTHIWWNDNKYYADSVRGRFTISKDSSKNTVYLQMNSLRAEDTAVYYCLYGYTYWGQGTLVTVSS
VL: DVVMTQTPSSLSASVGDRVTISCRSSQSLLYSNGNTYLHWYQQKPGKAPKLLIYKLSNRFSGVPDRFSGSGSGTDFTLTISSLQPEDFATYYCSQSTHVPWTFGQGTKVEIKR
For the molecule B2, the median fluorescence (anti-HIS PE) in assay [3] came to 8. For the same molecule, the relative affinity (%) in [4] is 31%.

B3: Fab variant "muCD45R0" (chimeric Fab: variable regions of parental murine CD45R0 antibody clone UCHL1, human constant regions) (Fab, V domains shown, not shown: small tags and cut ends)
VH: QITLKESGPGILQPSQTLSLTCSFSGFSLTTYGIGVGWIRQPPGKGLEWLTHIWWNDNKYYNTALRSRLTISKDSSNNQVLLKIANVDTADTATYYCLYGYTYWGQGTLVTVSA
VL: DVVMTQTPLSLPVSLGDQASISCRSSQSLLYSNGNTYLHWYLQKPGQSPKLLIYKLSNRFSGVPDRFSGSGSGTDFTLKISRVEAEDLGVYFCSQSTHVPWTFGGGTKLEIKR
As to B3, the relative affinity (%) in assay [5], in assay [6] and in [7] was 100% each time. Moreover, in [2], the max. mean fluorescence (anti-HIS-PE) was 37. Besides, the median fluorescence (anti-HIS PE) in [3] was 26. In assay [8], this molecule gave a median fluorescence, donor 1 of 8. The molecule also showed a median fluorescence, donor 2 in assay [9] of 21.

B4: Fab variant "huCD45R0_v3" (humanized, germline IGHV2-5*01 / IGKV2-30*01 framework with backmutations) (Fab, V domains shown, not shown: small tags and cut ends)
VH: QITLKESGPTLVKPTQTLTLTCTFSGFSLTTYGIGVGWIRQPPGKALEWLTHIWWNDNKYYSPSLKSRLTITKDSSKNQVVLTMTNMDPVDTATYYCLYGYTYWGQGTLVTVSA
VL: DVVMTQTPLSLPVTLGQPASISCRSSQSLLYSNGNTYLHWYQQRPGQSPRLLIYKLSNRFSGVPDRFSGSGSGTDFTLKISRVEAEDVGVYYCSQSTHVPWTFGGGTKLEIKR
Turning to B4, in assay [3], the median fluorescence (anti-HIS PE) came out at 43. In addition, in assay [4], the relative affinity (%) stood at 165%. The median fluorescence, donor 1 in assay [8] stood at 9.5. Also, the median fluorescence, donor 2 in assay [9] is 24.
